Positions count from the first letter of the chain named. No end group written: not given here.
How the values were obtained:
fXa [1] = molecular target: fXa (Homo sapiens, UniProt P00742); details: Campos et al. 2004, FEBS Lett. 577:512-516; read-out: inhibition constant Ki against fXa; cited from earlier work
fXIa = molecular target: T1, fXIa (Homo sapiens, UniProt P03951); experiment: Chromogenic test of protease inhibition in buffer, fXIa (substrate S-2366); assay type: biochemical; details: buffer solution, summary of Table 2
T1 construct: factor XI into its active form, factor XIa (fXIa)
Experimental: In order to assess selectivity of the fXIIa inhibition by the polypeptide comprising the sequence of the infestin-4 mutant MutB, its inhibitory activity in buffer solution against the purified coagulation factors was determined. The polypeptide's activity was compared with the known fXIIa inhibitors: CTI, infestin-4, infestin-4-based mutant Mut15, LCTI-III. […] The standard deviation amounted to about 50% of the average value; each value was measured by performing 2-3 repeats.
(§1) To determine the inhibition activity of such proteins as MutB, CTI, Inf4, Mut15, and LCTI-III as related to different coagulation proteases in a buffer, the chromogenic test was used: the mixture of protease and inhibitor was incubated in the wells of the plate for 15 minutes at 37° C., after which the chromogenic substrate solution was added to the mixture, and the protease activity was measured as the rate of chromogenic product formation at 37° C.
(§2) Chromogenic substrates included a p-nitroanilide group cleaved by the corresponding proteases. After cleavage of the p-nitroanilide group from the substrate molecule, the group absorption spectrum changes, and the change of concentration of such product within time can be detected at the light wavelength of 405 nm using a plate spectrophotometer. To build a dependence curve of the protease activity from the inhibitor concentration, different inhibitor concentrations were added into several samples with the same protease concentration. After that, the inhibitor concentration able to decrease the protease activity by 50% (IC50) was determined. The inhibition constant Ki was calculated using the Cheng-Prusoff equation (Ki=IC50/(1+S/KM)), where S is the initial substrate concentration, KM is the Michaelis-Menten constant of the substrate to the protease.
Native infestin-4 and its mutants MutB and Mut15 used here were fusion proteins with thioredoxin I E. coli containing polyhisticline clusters. […]

[2] = system: contact-activated coagulation; experiment: APTT test in platelet free plasma of a healthy donor (kaolin-cephalin activation); assay type: biochemical, human; details: 10 μM inhibitor in PFP; 45 sec without inhibitor
Experimental: The assessment of activity of the polypeptide comprising the sequence of an infestin-4 mutant MutB by its inhibition of the contact-activated coagulation shall be considered further with a reference to FIG. 1. Native infestin-4 and mutants MutB and Mut15 were added into 3 separate samples of platelet free plasma (PFP) of a healthy donor, with subsequent measuring time of contact-activated clotting in the APTT test.
Blood plasma from healthy donors was processed according to standard protocols of blood collection for coagulation assays (Collection, Transport, and Processing of Blood Specimens for Testing Plasma-Based Coagulation Assays and Molecular Hemostasis Assays; Approved Guideline Fifth Edition by Clinical and Laboratory Standards Institute (CLSI) H21-A5 Vol. 28 No. 5). 0.38% sodium citrate was added into blood to block the calcium ions.
The APTT test was administered using the reagent kits “Coagulo-test” (Scientific-production association Renam, Moscow, Russia) and different concentrations of the following contact activation inhibitors: native infestin-4, MutB, and Mut15. To do that, 50 microliters of blood plasma from a healthy donor were mixed with 5.6 microliters of a 10× solution of different inhibitor concentrations and incubated for 15 minutes at 37° C. Then, according to the “Coagulo-test” manual, 25 microliters of the mixture were transferred into the cuvette of the coagulometer Helena-C2, with addition of 25 microliters of kaolin-cephalin mixture activating fXII in blood plasma. After incubation at 37° C. for 3 minutes, 25 microliters of the calcium chloride solution in the initial concentration of 25 mM was added, and the time of fibrin clot formation in the coagulometer cuvette was determined photometrically.
APTT dependences on concentrations of native infestin-4, MutB and Mut15 obtained in the same way as in Example 1, are shown on FIG. 1.

fXIIa = details: without affecting hemostasis parameters; cited from earlier work
factor XIa = molecular target: T2, factor XIa (UniProt P03951 19-625); experiment: chromogenic test (S-2366), IC50 converted by Cheng-Prusoff
T2 construct: also called fXIa
Experimental: as §1, §2

factor XIIa = molecular target: T3, factor XIIa (UniProt P00748 20-615, limits assumed); experiment: chromogenic test (S-2302), IC50 converted by Cheng-Prusoff
T3 construct: also called fXIIa
T3 sequence (looked up): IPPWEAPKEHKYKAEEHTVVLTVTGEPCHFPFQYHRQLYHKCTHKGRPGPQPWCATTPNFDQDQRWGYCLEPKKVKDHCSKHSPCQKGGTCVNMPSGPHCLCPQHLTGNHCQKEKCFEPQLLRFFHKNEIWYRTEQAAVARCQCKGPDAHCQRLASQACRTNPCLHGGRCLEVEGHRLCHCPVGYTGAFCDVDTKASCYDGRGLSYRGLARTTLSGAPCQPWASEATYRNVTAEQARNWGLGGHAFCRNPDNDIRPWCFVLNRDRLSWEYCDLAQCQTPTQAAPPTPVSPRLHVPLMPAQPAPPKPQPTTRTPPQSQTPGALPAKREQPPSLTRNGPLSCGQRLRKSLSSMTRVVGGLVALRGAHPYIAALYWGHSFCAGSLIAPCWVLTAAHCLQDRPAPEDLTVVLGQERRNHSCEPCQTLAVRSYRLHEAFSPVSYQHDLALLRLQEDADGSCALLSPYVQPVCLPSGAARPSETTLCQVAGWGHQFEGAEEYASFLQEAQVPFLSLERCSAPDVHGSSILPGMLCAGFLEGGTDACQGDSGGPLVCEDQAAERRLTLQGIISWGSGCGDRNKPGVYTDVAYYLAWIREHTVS
Experimental: as §1, §2

fXa [3] = molecular target: T4, fXa (UniProt P00742 41-179; P00742 235-488, limits assumed); experiment: chromogenic test (S-2765), IC50 converted by Cheng-Prusoff
T4 construct: also called factor Xa
T4 sequence (P00742 41-179 limits assumed, form in doubt, chain 1 of 2): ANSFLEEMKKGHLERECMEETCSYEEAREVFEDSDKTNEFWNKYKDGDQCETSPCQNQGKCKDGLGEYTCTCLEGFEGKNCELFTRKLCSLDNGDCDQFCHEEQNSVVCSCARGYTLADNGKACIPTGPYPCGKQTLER
T4 sequence (P00742 235-488 limits assumed, form in doubt, chain 2 of 2): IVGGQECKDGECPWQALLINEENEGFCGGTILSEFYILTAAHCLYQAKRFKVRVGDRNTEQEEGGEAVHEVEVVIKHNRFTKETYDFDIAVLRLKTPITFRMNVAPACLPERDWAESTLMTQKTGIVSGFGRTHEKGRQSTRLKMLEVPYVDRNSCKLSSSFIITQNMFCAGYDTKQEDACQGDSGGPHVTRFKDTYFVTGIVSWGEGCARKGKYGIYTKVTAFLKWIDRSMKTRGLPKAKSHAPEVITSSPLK
Experimental: as §1, §2

fXa (Homo sapiens, UniProt P00742), sequence (P00742 235-488 limits assumed): as the sequence (P00742 235-488 limits assumed, form in doubt, chain 2 of 2) above
fXa (Homo sapiens, UniProt P00742), sequence (P00742 41-179 partner limits assumed): as the sequence (P00742 41-179 limits assumed, form in doubt, chain 1 of 2) above

## Inf4: domain 4 of the protein infestin from the midgut of Triatoma infestans, Kazal-type fXIIa inhibitor; PDB 2ERW (EVRNPCACFRNYVPVCGSDGKTYGNPCMLNCAAQTKVPGLKLVHEGRCQRSNVEQF; left off: large carriers; small tags and cut ends) [reference compound]
fXa [1]
  Ki: 53 nM
fXIa
  inhibition of fXIa (in words): do not inhibit
[2]
  APTT: 120 s
fXIIa
  effect in the thrombosis model in vivo: prevents vascular occlusion

## RICPRILMECSSDSDCLAECICLENGFCG (Chemically synthesised) [Luffa cylindrica trypsin inhibitor, LCTI-III]
Factor XIa
  Ki: 30000 nM
Factor XIIa
  Ki: 15 nM

B1: native infestin-4, fusion protein with thioredoxin I E. coli containing polyhistidine clusters (other)
chain: EVRNPCACFRNYVPVCGSDGKTYGNPCMLNCAAQTKVPGLKLVHEGRCQRSNVEQF
notes: It says MutB differs from it at positions 9, 12 and 14 only; also called Inf4; not shown: thioredoxin I of E. coli, fusion partner; polyhistidine clusters
fXa [3]
  Ki: 2000 nM
Factor XIIa
  Ki: 1 nM

B2: infestin-4 mutant MutB, fusion protein with thioredoxin I E. coli containing polyhistidine clusters (other, not shown: large carriers; small tags and cut ends)
chain: B1 chain with F9T, Y12F, P14A
modifications: cysteine pairing not given here; also: fusion with thioredoxin I and polyhistidine clusters, not given here
Factor XIIa
  Ki: 1 nM
